{"source": "patent US20130177572A1", "key": {"human PDGFRβ (human)": {"biological_target": "human PDGFRβ (human) (UniProt P09619)", "sequence (P09619 33-530 limits assumed)": "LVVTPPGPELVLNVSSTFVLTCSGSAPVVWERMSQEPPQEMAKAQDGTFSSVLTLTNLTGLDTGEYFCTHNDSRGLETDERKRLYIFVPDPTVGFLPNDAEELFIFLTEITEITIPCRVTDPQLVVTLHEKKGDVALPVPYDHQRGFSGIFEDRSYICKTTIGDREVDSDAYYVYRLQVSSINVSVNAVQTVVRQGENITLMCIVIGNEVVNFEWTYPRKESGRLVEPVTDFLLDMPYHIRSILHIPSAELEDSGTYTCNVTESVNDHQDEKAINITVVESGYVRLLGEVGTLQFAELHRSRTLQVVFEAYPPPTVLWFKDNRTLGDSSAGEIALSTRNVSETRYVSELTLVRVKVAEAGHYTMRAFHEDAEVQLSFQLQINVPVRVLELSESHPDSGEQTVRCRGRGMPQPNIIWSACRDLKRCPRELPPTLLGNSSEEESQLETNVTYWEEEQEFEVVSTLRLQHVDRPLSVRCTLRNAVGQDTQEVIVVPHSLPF", "assay": "solution equilibrium binding: 35S-Met labelled in vitro translated protein, human PDGFRβ titrated (0 to 20 nM), capture on protein A beads, scintillation counts"}, "[1]": {"biological_target": "human PDGFR-hIgG1-Fc chimeric fusion protein (human) (UniProt P09619)", "sequence (P09619 33-530 limits assumed, stated change not applied)": "as the sequence (P09619 33-530 limits assumed) above", "assay": "SPR (Biacore T100), PDGFR-Fc captured by anti-hIgG1 Fc, 1:1 model"}}, "data": [{"binder": "XB2202/A4 scFv (scFv, part only; not given: Linker, domain order and tag, V domains shown, not shown: another chain or arm of the molecule; small tags and cut ends) VH: QVQLVQSGAEVKKPGSSVRVSCKASGGTFSRHAISWVRQAPGQGLEWIGGILPILKTPNYAQRFQGRVTINADESTSTVYMEMSSLRSEDTAVYYCATHGGDRSYWGQGTLVTVSS VL: DVVMTQSPSSLSASVGDRVTITCQASQDISNWLNWYQQKPGKAPKLLIYEASNLETGVPSRFSGSGSGTDFTFTISSLQPEDIATYYCQQYNNVLRTFGQGTKVEIK", "values": [{"measurement": "Kd", "setting": "human PDGFRβ (human)", "value": 0.03, "unit": "nM"}, {"measurement": "Kd", "setting": "[1]", "value": 2.18, "unit": "nM"}, {"measurement": "koff", "setting": "[1]", "value": 0.00154, "unit": "s⁻¹"}, {"measurement": "kon", "setting": "[1]", "value": 706000, "unit": "M⁻¹ s⁻¹"}]}]}
